Source: PMC6114778, “Divalent cation and chloride ion sites of chicken acid sensing ion channel 1a elucidated by x-ray crystallography” (PLoS ONE, 2018)

B1: chicken ASIC1a Δ25 crystallization construct (residues 25-463 of chicken ASIC1) (domain or fragment, UniProt Q1XA76 25-463, looked up)
chain: SSTLHGISHIFSYERLSLKRVVWALCFMGSLALLALVCTNRIQYYFLYPHVTKLDEVAATRLTFPAVTFCNLNEFRFSRVTKNDLYHAGELLALLNNRYEIPDTQTADEKQLEILQDKANFRNFKPKPFNMLEFYDRAGHDIREMLLSCFFRGEQCSPEDFKVVFTRYGKCYTFNAGQDGKPRLITMKGGTGNGLEIMLDIQQDEYLPVWGETDETSFEAGIKVQIHSQDEPPLIDQLGFGVAPGFQTFVSCQEQRLIYLPPPWGDCKATTGDSEFYDTYSITACRIDCETRYLVENCNCRMVHMPGDAPYCTPEQYKECADPALDFLVEKDNEYCVCEMPCNVTRYGKELSMVKIPSKASAKYLAKKYNKSEQYIGENILVLDIFFEALNYETIEQKKAYEVAGLLGDIGGQMGLFIGASILTVLELFDYAYEVIKHR
notes: chicken ASIC1 (acid sensing ion channel 1a), residues 25-463; 24 residues removed from the amino-terminus and 64 from the carboxy-terminus; Homotrimeric channel; three subunits around a molecular 3-fold axis in the P212121 crystals; also called resting channel; cASIC1a
B2: chicken ASIC1a Δ13 crystallization construct (residues 14-463 of chicken ASIC1) (domain or fragment, UniProt Q1XA76 14-463, looked up)
chain: GQPVSIQAFASSSTLHGISHIFSYERLSLKRVVWALCFMGSLALLALVCTNRIQYYFLYPHVTKLDEVAATRLTFPAVTFCNLNEFRFSRVTKNDLYHAGELLALLNNRYEIPDTQTADEKQLEILQDKANFRNFKPKPFNMLEFYDRAGHDIREMLLSCFFRGEQCSPEDFKVVFTRYGKCYTFNAGQDGKPRLITMKGGTGNGLEIMLDIQQDEYLPVWGETDETSFEAGIKVQIHSQDEPPLIDQLGFGVAPGFQTFVSCQEQRLIYLPPPWGDCKATTGDSEFYDTYSITACRIDCETRYLVENCNCRMVHMPGDAPYCTPEQYKECADPALDFLVEKDNEYCVCEMPCNVTRYGKELSMVKIPSKASAKYLAKKYNKSEQYIGENILVLDIFFEALNYETIEQKKAYEVAGLLGDIGGQMGLFIGASILTVLELFDYAYEVIKHR
notes: chicken ASIC1 (acid sensing ion channel 1a), residues 14-463; 13 residues removed from the amino-terminus and 64 from the carboxy-terminus; Homotrimeric channel; crystals in space group H3; also called desensitized channel; cASIC1a

Key:
[1] = biological target: the molecule itself; assay: crystal structure; Δ25 crystals grown at high pH (Tris pH 8.5) with BaCl2, soaked in 50 mM BaCl2 or 150 mM NaBr; space group P212121; resting state; anomalous diffraction
[2] = biological target: the molecule itself; assay: crystal structure; Δ13 crystals grown at 20°C, HEPES pH 6.9, sodium formate, PEG 3,350, soaked in 50 mM BaCl2; space group H3; desensitized state; anomalous diffraction

Protein | binding result [1] | binding result [2]
B1 | binds | 
B2 |  | binds
